Earlier results in paper PMC8100127.

What was measured:
CA 15-3 (MUC1) = CA 15-3 (MUC1) (UniProt P15941); settings: No purified-protein binding assay in this paper (Kd values cited). TAS on plasma EVs: 0.1 uM Cy5-aptamer, 1x PBS, 2 mM MgCl2, 25 C, 2 h
[1] = biological target: T1, VEGF K321N;internal_change (UniProt P15692); settings: No purified-protein binding assay in this paper (Kd values cited). TAS on plasma EVs: 0.1 uM Cy5-aptamer, 1x PBS, 2 mM MgCl2, 25 C, 2 h
T1 sequence: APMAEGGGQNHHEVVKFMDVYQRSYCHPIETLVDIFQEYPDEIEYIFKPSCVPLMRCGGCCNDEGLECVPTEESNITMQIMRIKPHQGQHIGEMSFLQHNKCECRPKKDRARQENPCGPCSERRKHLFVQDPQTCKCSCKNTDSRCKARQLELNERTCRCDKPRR

Sequence of CA 15-3 (MUC1) (P15941 24-1097): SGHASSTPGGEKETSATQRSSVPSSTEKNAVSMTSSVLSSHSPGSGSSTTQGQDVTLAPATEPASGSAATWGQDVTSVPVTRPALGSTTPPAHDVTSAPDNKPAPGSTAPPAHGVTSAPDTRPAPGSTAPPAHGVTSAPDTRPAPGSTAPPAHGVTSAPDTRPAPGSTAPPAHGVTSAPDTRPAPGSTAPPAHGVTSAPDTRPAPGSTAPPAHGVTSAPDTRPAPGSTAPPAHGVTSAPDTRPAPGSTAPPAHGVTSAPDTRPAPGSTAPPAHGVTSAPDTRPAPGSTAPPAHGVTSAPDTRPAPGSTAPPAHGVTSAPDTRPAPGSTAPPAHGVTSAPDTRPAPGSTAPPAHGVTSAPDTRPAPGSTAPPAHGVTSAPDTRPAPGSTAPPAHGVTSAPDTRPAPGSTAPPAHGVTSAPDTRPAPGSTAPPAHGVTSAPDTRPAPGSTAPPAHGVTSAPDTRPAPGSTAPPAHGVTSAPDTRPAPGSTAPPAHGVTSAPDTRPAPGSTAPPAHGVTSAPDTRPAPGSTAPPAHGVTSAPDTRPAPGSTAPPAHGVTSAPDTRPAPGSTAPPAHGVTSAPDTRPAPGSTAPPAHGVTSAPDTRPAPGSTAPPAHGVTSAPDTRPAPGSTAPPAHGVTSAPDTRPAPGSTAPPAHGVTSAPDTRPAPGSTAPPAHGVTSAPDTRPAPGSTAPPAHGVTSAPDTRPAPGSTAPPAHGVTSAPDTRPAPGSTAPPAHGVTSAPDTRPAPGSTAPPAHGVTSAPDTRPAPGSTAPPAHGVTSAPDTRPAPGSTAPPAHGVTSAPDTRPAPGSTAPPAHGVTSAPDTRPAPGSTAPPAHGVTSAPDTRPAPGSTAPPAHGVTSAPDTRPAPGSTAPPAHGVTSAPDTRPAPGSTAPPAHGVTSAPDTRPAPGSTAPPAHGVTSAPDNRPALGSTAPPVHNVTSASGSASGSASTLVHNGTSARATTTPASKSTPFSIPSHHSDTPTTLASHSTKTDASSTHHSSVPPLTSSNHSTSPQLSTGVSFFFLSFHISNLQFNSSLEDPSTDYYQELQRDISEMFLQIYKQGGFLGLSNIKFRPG

| Sequence | Kd (CA 15-3 (MUC1)) | Kd [1] |
| --- | --- | --- |
| GCAGTTGATCCTTTGGATACCCTGG [CA 15-3 aptamer] | 0.135 nM | – |
| TTCCCGTCTTCCAGACAAGAGTGCAGGG [VEGF aptamer] | – | 400 nM |
